Common to all, as to experiment: SPR
One test addresses T1, VEGFR3 (Flt-4) IgD6-7 (human, UniProt P35916).
T1 chain: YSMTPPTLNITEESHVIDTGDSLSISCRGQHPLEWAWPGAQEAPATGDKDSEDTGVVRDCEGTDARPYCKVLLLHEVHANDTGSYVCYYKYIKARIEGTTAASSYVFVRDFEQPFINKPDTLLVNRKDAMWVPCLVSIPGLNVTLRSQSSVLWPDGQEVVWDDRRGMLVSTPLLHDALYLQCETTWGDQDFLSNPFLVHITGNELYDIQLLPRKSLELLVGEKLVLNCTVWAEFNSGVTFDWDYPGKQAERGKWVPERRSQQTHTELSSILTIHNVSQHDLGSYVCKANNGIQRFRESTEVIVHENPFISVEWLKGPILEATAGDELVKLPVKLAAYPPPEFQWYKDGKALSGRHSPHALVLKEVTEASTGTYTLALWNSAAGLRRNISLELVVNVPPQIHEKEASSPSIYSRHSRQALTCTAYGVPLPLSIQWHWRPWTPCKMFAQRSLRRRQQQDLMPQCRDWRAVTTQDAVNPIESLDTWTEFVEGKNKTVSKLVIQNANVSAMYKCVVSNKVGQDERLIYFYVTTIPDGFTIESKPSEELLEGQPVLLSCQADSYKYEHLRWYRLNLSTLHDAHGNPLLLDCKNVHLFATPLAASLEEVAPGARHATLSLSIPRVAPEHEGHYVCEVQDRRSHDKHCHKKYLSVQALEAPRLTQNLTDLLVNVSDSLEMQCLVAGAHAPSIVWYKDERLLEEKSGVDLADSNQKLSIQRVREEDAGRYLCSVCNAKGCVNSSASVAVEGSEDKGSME

Another test concerns the target T2, VEGFR2 (KDR) IgD4-7 (human, UniProt P35968).
T2 chain: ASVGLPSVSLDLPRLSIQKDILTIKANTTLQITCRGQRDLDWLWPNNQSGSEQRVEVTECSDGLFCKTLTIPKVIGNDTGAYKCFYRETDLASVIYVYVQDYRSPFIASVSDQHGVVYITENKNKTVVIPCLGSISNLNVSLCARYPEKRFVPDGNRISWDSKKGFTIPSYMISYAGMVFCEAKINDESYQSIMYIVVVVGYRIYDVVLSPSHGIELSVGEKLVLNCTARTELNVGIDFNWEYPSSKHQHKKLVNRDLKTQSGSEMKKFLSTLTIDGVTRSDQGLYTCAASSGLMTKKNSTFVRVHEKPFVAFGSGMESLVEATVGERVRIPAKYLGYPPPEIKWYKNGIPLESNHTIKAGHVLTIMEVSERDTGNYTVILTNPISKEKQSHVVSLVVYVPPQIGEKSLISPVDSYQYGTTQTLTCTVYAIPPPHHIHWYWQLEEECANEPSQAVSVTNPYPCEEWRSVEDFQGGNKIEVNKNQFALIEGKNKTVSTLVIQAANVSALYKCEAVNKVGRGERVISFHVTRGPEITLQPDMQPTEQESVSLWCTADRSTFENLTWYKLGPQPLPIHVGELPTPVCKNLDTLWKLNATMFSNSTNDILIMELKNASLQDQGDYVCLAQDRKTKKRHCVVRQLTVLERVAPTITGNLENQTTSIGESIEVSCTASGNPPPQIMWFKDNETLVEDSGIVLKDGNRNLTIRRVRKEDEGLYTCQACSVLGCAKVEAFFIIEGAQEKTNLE

The next test deals with T3, VEGFR2 (KDR) IgD6-7 (human, UniProt P35968).
T3 chain: T2 chain

A further test addresses T4, VEGFR3 (Flt-4) IgD4-7 (human, UniProt P35916).
T4 chain: T1 chain

B1: R2C7-1 (antibody, V domains shown)
VH: EVQLQQSGPELVKPGASVKISCKASGYSFTDYFINWVIQRHGKSLEWVGRINPYNGGSFYNQKFKDKATLTVDKSSNIAHMELRSLASEDSAIYYCARSGGNGYDYWGQGTTLTVSS
VL: DIVMTQAAPSVPVIPGESVSISCRSSKSLLHSNGNTYLYWFLQRPGQSPQLLIYRMSNLASGVPDRFSGSGSGTAFTLRISRVEAEDVGVYYCMQHLEYPYTFGGGTKVEIK
What is called Kd is the equilibrium constant for the complex coming apart. High values mean weaker binding, low ones tighter binding. As to B1, the Kd in the test with VEGFR3 (Flt-4) IgD6-7 amounted to 13 nM; with VEGFR2 (KDR) IgD4-7, 2.18 nM; with VEGFR2 (KDR) IgD6-7 it was 1.13 nM; with VEGFR3 (Flt-4) IgD4-7, 3.3 nM.

B2: R2C9-11 (antibody, V domains shown)
VH: QVQLQQPGAELVKPGASVKLSCKASGYTFTSYWMHWVKQRPGQGLEWIGEINPSNGRTNYNEKFKSKATLTVDKSSSTAYMQLSSLTSEDSAVYYCANLYFDVWGAGTTVTVSS
VL: DIVMTQSPSSLSVSAGEKVTMSCKSSQNLLNSGNQKYYLAWYQQKPGQPPKLLIYGASIRESGVPDRFIGSGSGTDFTLTISSVQAEDLAVYFCQSDHSYPYTFGGGTKLEIK
With B2, the Kd stood at 4.8 nM with VEGFR3 (Flt-4) IgD6-7, 0.46 nM with VEGFR2 (KDR) IgD4-7, 1.5 nM with VEGFR2 (KDR) IgD6-7 and 1.1 nM with VEGFR3 (Flt-4) IgD4-7.
